Experimental data as given in patent US20090155873A1, “BIOFUEL PRODUCTION” (BIO ARCHITECTURE LAB, INC., priority 2007, published 2009).

B1: 2ADH-16: secondary alcohol dehydrogenase isolated from Klebsiella pneumoniae subsp. pneumoniae MGH 78578, SEQ ID NO:138 (protein)
chain: MTAFHNKSVLVLGGSRGIGAAIVRRFVADGASVVFSYSGSPEAAERLAAETGSTAVQADSADRDAVISLVRDSGPLDVLVVNAGIALFGDALEQDSDAIDRLFHINIHAPYHASVEAARRMPEGGRIIVIGSVNGDRMPLPGMAAYALSKSALQGLARGLARDFGPRGITVNVVQPGPIDTDANPENGPMKELMHSFMAIKRHGRPEEVAGMVAWLAGPEASFVTGAMHTIDGAFGA
modifications: Klebsiella pneumoniae subsp. pneumoniae MGH78578
B2: pduCDE: diol dehydratase from Klebsiella pneumoniae MGH 78578, subunits SEQ ID NOs:104, 106, 108 (protein)
chain 1: MRSKRFEALAKRPVNQDGFVKEWIEEGFIAMESPNDPKPSIRIVNGAVTELDDKPVEQFDLIDHFIARYGINLARAEEVMAMDSVKLANMLCDPNVKRSDIVPLTTAMTPAKIVEVVSHMNVVEMMMAMQKMRARRTPSQQAHVTNIKDNPVQIAADAAEGAWRGFDEQETTVAVARYAPFNAIALLVGSQVGRPGVLTQCSLEEATELKLGMLGHTCYAETISVYGTEPVFTDGDDTPWSKGFLASSYASRGLKMRFTSGSGSEVQMGYAEGKSMLYLEARCIYITKAAGVQGLQNGSVSCIGVPSAVPSGIRAVLAENLICSALDLECASSNDQTFTHSDMRRTARLLMQFLPGTDFISSGYSAVPNYDNMFAGSNEDAEDFDDYNVIQRDLKVDGGLRPVREEDVIAIRNKAARALQAVFAGMGLPPITDEEVEAATYAHGSKDMPERNIVEDIKFAQEIINKNRNGLEVVKALAKGGFPDVAQDMLNIQKAKLTGDYLHTSAIIVGEGQVLSAVNDVNDYAGPATGYRLQGERWEEIKNIPGALDPNELG
chain 2: MEINETLLRQIIEEVLSEMKSGADKPVSFSAPAASVASAAPVAVAPVSGDSFLTEIGEAKPGTQQDEVIIAVGPAFGLAQTANIVGIPHKNILREVIAGIEEEGIKARVIRCFKSSDVAFVAVEGNRLSGSGISIGIQSKGTTVIHQRGLPPLSNLELFPQAPLLTLETYRQIGKNAARYAKRESPQPVPTLNDQMARPKYQAKSAILHIKETKYVVTGKNPQELRVAL
chain 3: MNTDAIESMVRDVLSRMNSLQDGITPAPAAPTNDTVRQPKVSDYPLATRHPEWVKTATNKTLDDLTLENVLSDRVTAQDMRITPETLRMQAAIAQDAGRDRLAMNFERAAELTAVPDDRILEIYNALRPYRSTQAELLAIADDLEHRYQARLCAAFVREAAGLYIERKKLKGDD
modifications: Klebsiella pneumoniae MGH78578
B3: ddh3: diol dehydrogenase isolated from Klebsiella pneumoniae MGH78578, SEQ ID NO:102 (protein)
chain: MKKVALVTGAGQGIGKAIALRLVKDGFAVAIADYNDATAKAVASEINQAGGHAVAVKVDVSDRDQVFAAVEQARKTLGGFDVIVNNAGVAPSTPIESITPEIVDKVYNINVKGVIWGIQAAVEAFKKEGHGGKIINACSQAGHVGNPELAVYSSSKFAVRGLTQTAARDLAPLGITVNGYCPGIVKTPMWAEIDRQVSEAAGKPLGYGTAEFAKRITLGRLSEPEDVAACVSYLASPDSDYMTGQSLLIDGGMVFN
modifications: Klebsiella pneumoniae MGH78578
B4: 2ADH-2: secondary alcohol dehydrogenase isolated from Pseudomonas putida KT2440, SEQ ID NO:112 (protein)
chain: MSMTFSGQVALVTGAGAGIGRATALAFAHEGMKVVVADLDPVGGEATVAQIHAAGGEALFIACDVTRDAEVRQLHERLMAAYGRLDYAFNNAGIEIEQHRLAEGSEAEFDAIMGVNVKGVWLCMKYQLPLLLAQGGGAIVNTASVAGLGAAPKMSIYSASKHAVIGLTKSAAIEYAKKGIRVNAVCPAVIDTDMFRRAYQADPRKAEFAAAMHPVGRIGKVEEIASAVLYLCSDGAAFTTGHCLTVDGGATAI
modifications: Pseudomonas putida KT2440
B5: Vs24254: functional external alginate lyase of Vibrio splendidus, SEQ ID NO:32 (protein, listed as Vibrio splendidus)
chain: MNKPIFVVVLASLTYGCGGSSSSDSSDPSDTNNSGASYGVVAPYDIAKYQNILSSSDLQVSDPNGEEGNKTSEVKDGNFDGYVSDYFYADEETENLIFKMANYKMRSEVREGENFDINEAGVRRSLHAEISLPDIEHVMASSPADHDEVTVLQIHNKGTDESGTGYIPHPLLRVVWEQERDGLTGHYWAVMKNNAIDCSSAADSSDCYATSYNRYDLGEADLDNFTKFDLSVYENTLSIKVNDEVKVDEDITYWQHLLSYFKAGIYNQFENGEATAHFQALRYTTTQVNGSNDWDINDWKLTIPASKDTWYGSGGDSAAELEPERCESSKDLLANDSDVYDSDIGLSYFNTDEGRVHFRADMGYGTSTENSSYIRSELRELYQSSVQPDCSTSDEDTSWYLDDTRTNATSHELTASLRIEDYPNINNQDPKVVLGQIHGWKINQALVKLLWEGESKPVRVILNSDFERNNQDCNHCDPFSVELGTYSASEEWRYTIRANQDGIYLATHDLDGTNTVSHLIPWGQDYTDKDGDTVSLTSDWTSTDIAFYFKAGIYPQFKPDSDYAGEVFDVSFSSLRAEHN
B6: Vs24259: putative protein of Vibrio splendidus similar to an alginate lyase, SEQ ID NO:34; negative control (protein, listed as Vibrio splendidus)
chain: MKQITLKTLLASSILLAVGCASTSTPTADFPNNKETGEALLTPVAVSASSHDGNGPDRLVDQDLTTRWSSAGDGEWATLDYGSVQEFDAVQASFSKGNQRQSKFDIQVSVDGESWTTVLENQLSSGKAIGLERFQFEPVVQARYVRYVGHGNTKNGWNSVTGLAAVNCSINACPASHIITSDVVAAEAVIIAEMKAAEKARKDARKDLRSGNFGVAAVYPCETTVECDTRSALPVPTGLPATPVAGNSPSENFDMTHWYLSQPFDHDKNGKPDDVSEWNLANGYQHPEIFYTADDGGLVFKAYVKGVRTSKNTKYARTELREMMRRGDQSISTKGVNKNNWVFSSAPESDLESAAGIDGVLEATLKIDHATTTGNANEVGRFIIGQIHDQNDEPIRLYYRKLPNQETGAVYFAHESQDATKEDFYPLVGDMTAEVGDDGIALGEVFSYRIDVKGNTMTVTLIREGKDDVVQVVDMSNSGYDAGGKYMYFKAGVYNQNISGDLDDYSQATFYQLDVSHDQYKK

How the values were obtained:
[1] = Kinetic testing of oxidation and reduction reactions with 2ADH-16; type: biochemical; details: 0.04 mg/mL enzyme, pH 6.5(red) or 9.0(ox), 25 C, FIGS. 35 and 36
Method: Similar to above, kinetic testing for both oxidation and reduction reactions was performed on various substrates using 2ADH-16. The conditions for these studies were as follows: 0.04 mg/mL enzyme, 0.25 mg/mL cofactor, 20 mM Tris HCl Buffer pH 6.5(red) or 9.0(ox), T=25 C, 100 uL total volume was used.

[2] = Sequential reaction of diol dehydrogenase and diol dehydratase on butyroin (GC-MS); type: biochemical; details: 37° C., 40 hours, NADH, coenzyme B12, GC-MS, FIGS. 26-27
Method: Diol dehydrogenase ddh from Klebsiella pneumoniae MGH 78578 and diol dehydratase pduCDE from Klebsiella pneumoniae MGH 78578 were cloned into a bacterial expression vector and expressed and purified on a Ni-NTA column, as described in Example X except that 1 mM of 1,2-propanediol was added at all time during the expression and purification of diol dehydratase. The large, medium, and small subunits of the pduCDE polypeptide are encoded by the nucleotide sequences of SEQ ID NOs:103, 105, and 107, respectively, and the polypeptide sequence are set forth in SEQ ID NOs: 104, 106, and 108, respectively.
The ddh3 and pduCDE polypeptides were incubated with butyroin and their appropriate cofactors, then assayed using gas chromatography-mass spectrometry (GC-MS) for their ability to perform sequential reactions resulting in the product 4-octanone. The reaction mixture was incubated at 37° C. for 40 hours in a 0.6 mL eppendorf tube with minimal head space. The reaction product was extracted with an equivalent volume of ethyl acetate, stored in a glass vial, and sent to Thermo Fischer Scientific Instruments Division for compositional analysis by GC-MS.

[3] = NADH Production Assay (oxidation of 4-octanol); type: biochemical; details: NAD+, 30° C., FIG. 30A
Method: Various secondary alcohol dehydrogenases (2ADHs) were isolated from Pseudomonas putida KT2440, Pseudomonas fluorescens Pf-5, and Klebsiella pneumoniae MGH 78578. All vectors were transformed in BL21(DE3) competent cells and expression of the genes encoding the proteins of interest was induced with IPTG (via the T7 promoter). The cells were lysed, proteins were extracted and then purified on Ni-NTA columns. Final protein concentration in the Ni-NTA eluate was diluted to 0.15 mg/mL prior to assays.
[…] consumption and production assays were performed using a THERMOmax microplate reader in the kinetic mode, monitoring the NADPH absorbance peak at 340 nm until the reaction reached equilibrium. […] These reaction conditions are found in Table 4 below.

[4] = TBA assay for secreted alginate lyase; type: cell-based; details: BL21 cells, LB+2% alginate+0.1 mM IPTG, overnight culture media, FIG. 47
Method: The Vs24254 (SEQ ID NO: 32) region of Vibro spendidus encodes a functional external alginate lyase. BL21 cells expressing Vs24254 from the pET28 vector were capable of breaking down alginate in the growth medium. […] This assay was performed by spinning down an overnight culture grown on the above mentioned media. The media was then mixed in a 1:1 ratio with 0.8% thiobarbituric acid (TBA), heated for 10 min at 99 degrees Celsius, and assayed for pink coloration. […] Wildtype E. coli cells not expressing any recombinant proteins show the same coloration as the negative control Vs24259 (data not shown).

Molecule | product formed from butyroin by sequential reactions [2] | TBA assay result (cleavage of alginate in growth medium) [4] | also measured
B1 | – | – | oxidation and reduction of various substrates [1]: capable of catalyzing both the oxidation and reduction of a wide variety of substrates
B2 | 4-octanone was produced from butyroin | – | –
B3 | 4-octanone was produced from butyroin | – | –
B4 | – | – | oxidation of 4-octanol measured by NADH production [3]: catalyzes the oxidation of 4-octanol in the presence of NAD+
B5 | – | positive TBA assay result of pink color | –
B6 | – | little or no cleavage of the alginate polymer has occurred | –
